Positions count from the first letter of the chain named. Names and notes keep the numbering of the source.

In patent publication US20230052369A1 (Zymeworks, published 2023) one finds Kd data, which are given here for 13 molecules.

B1: v23817 (antibody, human IgG1, kappa, V domains shown)
VH: EVQLVESGGGLVQPGGSLRLSCAASGFTISNNYYMCWVRQAPGKGLEWIACIYGGISGRTYYADSAKGRFTISKDSSNTVYLQMNSLRAEDTAVYYCVRGYVGTSNLWGQGTLVTVSS
VL: DIQMTQSPSSLSASVGDRVTITCQASQSIYSSLAWYQQKPGKAPKLLIYDASHLASGVPSRFSGSRYGTDFTLTISSVQPEDAATYYCQGGWYSSAATYVPNTFGGGTKVEVKR
notes: also called humanized 8K22 H4L5
B2: v29681 (scFv)
scFv: EVQLVESGGGLVQPGGSLRLSCAASGFTISNNYYMCWVRQAPGKGLEWIACIYGGISGRTYYADSAKGRFTISKDSSNTVYLQMNSLRAEDTAVYYCVRGYVGTSNLWGQGTLVTVSSGGSGGGSGGGSGGGSGGGSGDIQMTQSPSSLSASVGDRVTITCQASQSIYSSLAWYQQKPGKAPKLLIYDASHLASGVPSRFSGSRYGTDFTLTISSVQPEDFATYYCQGGWYSSAATYVPNTFGGGTKVEVK
notes: One-armed, scFv at the C-terminus of Het FcA (GGGG linker); also called C-term VH-(long)-VL
B3: v29685 (scFv)
scFv: B2 scFv with G45C, G244C
notes: One-armed, scFv at the C-terminus of Het FcA; VL-G100C and VH-G44C already in the entry; also called C-term VH-(long)-VL + disulfide
B4: v29675 (antibody, V domains shown)
VH: B1 VH
VL: DIQMTQSPSSLSASVGDRVTITCQASQSIYSSLAWYQQKPGKAPKLLIYDASHLASGVPSRFSGSRYGTDFTLTISSVQPEDFATYYCQGGWYSSAATYVPNTFGGGTKVEVK
notes: One-armed antibody, humanized 8K22 (H4L3 of v23807) Fab on a heterodimeric IgG1 Fc; also called N-term Parent Fab; Parent Fab antibody
B5: v29679 (scFv)
scFv: EVQLVESGGGLVQPGGSLRLSCAASGFTISNNYYMCWVRQAPGKGLEWIACIYGGISGRTYYADSAKGRFTISKDSSNTVYLQMNSLRAEDTAVYYCVRGYVGTSNLWGQGTLVTVSSGGGGSGGGGSGGGGSDIQMTQSPSSLSASVGDRVTITCQASQSIYSSLAWYQQKPGKAPKLLIYDASHLASGVPSRFSGSRYGTDFTLTISSVQPEDFATYYCQGGWYSSAATYVPNTFGGGTKVEVK
notes: One-armed, scFv at the C-terminus of Het FcA (GGGG linker); also called C-term VH-(short)-VL
B6: v29683 (scFv)
scFv: B5 scFv with G45C, G239C
notes: One-armed, scFv at the C-terminus of Het FcA; VL-G100C and VH-G44C already in the entry; also called C-term VH-(short)-VL + disulfide
B7: v29677 (scFv)
scFv: DIQMTQSPSSLSASVGDRVTITCQASQSIYSSLAWYQQKPGKAPKLLIYDASHLASGVPSRFSGSRYGTDFTLTISSVQPEDFATYYCQGGWYSSAATYVPNTFGGGTKVEVKGGSGGGSGGGSGGGSGGGSGEVQLVESGGGLVQPGGSLRLSCAASGFTISNNYYMCWVRQAPGKGLEWIACIYGGISGRTYYADSAKGRFTISKDSSNTVYLQMNSLRAEDTAVYYCVRGYVGTSNLWGQGTLVTVSS
notes: One-armed, scFv at the N-terminus of Het FcA (Ala-Ala linker); also called N-term VL-(long)-VH
B8: v29680 (scFv)
scFv: B7 scFv
notes: One-armed, scFv at the C-terminus of Het FcA (GGGG linker); also called C-term VL-(long)-VH
B9: v29684 (scFv)
scFv: B7 scFv with G106C, G178C
notes: One-armed, scFv at the C-terminus of Het FcA; VL-G100C and VH-G44C already in the entry; also called C-term VL-(long)-VH + disulfide
B10: v29676 (scFv)
scFv: DIQMTQSPSSLSASVGDRVTITCQASQSIYSSLAWYQQKPGKAPKLLIYDASHLASGVPSRFSGSRYGTDFTLTISSVQPEDFATYYCQGGWYSSAATYVPNTFGGGTKVEVKGGGGSGGGGSGGGGSEVQLVESGGGLVQPGGSLRLSCAASGFTISNNYYMCWVRQAPGKGLEWIACIYGGISGRTYYADSAKGRFTISKDSSNTVYLQMNSLRAEDTAVYYCVRGYVGTSNLWGQGTLVTVSS
notes: One-armed: scFv fused by an Ala-Ala linker to the N-terminus (hinge) of Het FcA, paired with Het FcB Fc; also called N-term VL-(short)-VH
B11: v29678 (scFv)
scFv: B10 scFv
notes: also called C-term VL-(short)-VH
B12: v29682 (scFv)
scFv: B10 scFv with G106C, G173C
notes: One-armed, scFv at the C-terminus of Het FcA; VL-G100C and VH-G44C (Kabat) already in the entry; also called C-term VL-(short)-VH + disulfide
B13: v23662 (bispecific antibody, human IgG1, kappa, L234A L235A)
heavy 1: QVQLKQSGPGLVQPSQSLSITCTVSGFSLTSYGVHWVRQSPGKGLEWLGVIWSGGSTDYNAAFISRLSISKDNSKSQVFFKMNSLQADDTAIYYCARNPLTATVMDYWGQGTSVTVSSASTKGPSVFPLAPSSKSTSGGTAALGCLVKDYFPEPVTVSWNSGALTSGVHTFPAVLQSSGLYSLSSVVTVPSSSLGTQTYICNVNHKPSNTKVDKKVEPKSCDKTHTCPPCPAPEAAGGPSVFLFPPKPKDTLMISRTPEVTCVVVSVSHEDPEVKFNWYVDGVEVHNAKTKPREEQYNSTYRVVSVLTVLHQDWLNGKEYKCKVSNKALPAPIEKTISKAKGQPREPQVYVYPPSRDELTKNQVSLTCLVKGFYPSDIAVEWESNGQPENNYKTTPPVLDSDGSFALVSKLTVDKSRWQQGNVFSCSVMHEALHNHYTQKSLSLSPGGGGGDIVMTQTPSSVSAAVGGTVTIKCQASQTIGSSLAWYQQKPGQPPKLLIYRASTLASGVSSRFRGSGSGTEYTLTISDLECADAATYYCQWTDYGYIYIWAFGGGTEVVVKGGGGSGGGGSGGGGSQEQLVESGGGLVQPEGSLTLTCTASKFSFSSLYYMCWVRQAPGKGLEWIACVYGGSSGNTYYASWAKGRFTISKASSTTVTLQLTSLTAADTATYFCARFDVDGSGFNLWGPGTLVTVSS
heavy 2: QVQLKQSGPGLVQPSQSLSITCTVSGFSLTSYGVHWVRQSPGKGLEWLGVIWSGGSTDYNAAFISRLSISKDNSKSQVFFKMNSLQADDTAIYYCARNPLTATVMDYWGQGTSVTVSSASTKGPSVFPLAPSSKSTSGGTAALGCLVKDYFPEPVTVSWNSGALTSGVHTFPAVLQSSGLYSLSSVVTVPSSSLGTQTYICNVNHKPSNTKVDKKVEPKSCDKTHTCPPCPAPEAAGGPSVFLFPPKPKDTLMISRTPEVTCVVVSVSHEDPEVKFNWYVDGVEVHNAKTKPREEQYNSTYRVVSVLTVLHQDWLNGKEYKCKVSNKALPAPIEKTISKAKGQPREPQVYVLPPSRDELTKNQVSLLCLVKGFYPSDIAVEWESNGQPENNYLTWPPVLDSDGSFFLYSKLTVDKSRWQQGNVFSCSVMHEALHNHYTQKSLSLSPG
light: DIVMTQSQKFMSTSVGDRVSVTCKASQNVGTNVAWYQQKPGQSRTVLIYSASYRHSGVPDRFTGSGSGTDFTLTISNVQSEDLAEYFCQQYNSYPLTFGTGTKLELKRTVAAPSVFIFPPSDEQLKSGTASVVCLLNNFYPREAKVQWKVDNALQSGNSQESVTEQDSKDSTYSLSSTLTLSKADYEKHKVYACEVTHQGLSSPVTKSFNRGEC
notes: also called 2E8 x 1H06 (VLVH) 2x1

T1 sequence (P15328 25-234 limits assumed): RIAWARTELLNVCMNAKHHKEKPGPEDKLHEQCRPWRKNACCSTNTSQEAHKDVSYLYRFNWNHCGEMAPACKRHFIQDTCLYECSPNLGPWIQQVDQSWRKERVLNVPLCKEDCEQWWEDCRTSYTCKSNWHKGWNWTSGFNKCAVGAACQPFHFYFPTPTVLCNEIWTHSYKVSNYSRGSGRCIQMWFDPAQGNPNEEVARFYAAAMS

One experiment has as its target T1, recombinant His-tagged human FRα (human, UniProt P15328 25-234).
T1 construct: Bought protein; also called hFRα; FRα-HIS
Nature of the experiment: BLI, supernatant, n=1. A general note: In BLI a coated tip is dipped into the sample, and binding shifts an interference pattern.
Description: (§1) The assay buffer used was KB buffer (kinetics buffer, composed of PBS pH 7.4, 0.1% BSA, 0.02% Tween 20, 0.05% sodium azide) supplemented with 0.06% Tween 20. The experiment was conducted at 25° C. with a shake speed of 1000 rpm.
(§2) Data analysis was performed using the Data analysis software 9.0′ (ForteBio). The reference-subtracted binding curves were globally fitted to the 1:1 interaction model to generate the binding kinetic parameters kₒₙ, koff, and the dissociation constant KD.
Broadly, the Kd is the free concentration of one partner at which half of the binding sites on the other are occupied at equilibrium, for simple one-to-one binding. For B1, the Kd was found to be 9.5 nM.

A further experiment concerns the target T1, recombinant His-tagged human FRα. The experiment can be described thus: BLI, n=2.
Description: as §1, §2
All parameters remained the same except for the dissociation phase which was recorded for 1500 s.
For B2, the Kd stood at 2.6 nM.
Same read-out and setting: for B3 the value was 4.2 nM.
Same read-out and setting: for B4 the value was 4.1 nM; for B5, 0.39 nM; for B6, 1.1 nM.
The same measure, in the same setting: for B7 the value was 5 nM; for B8, 1.8 nM.
As to B9, the dissociation constant Kd was 0.88 nM.
Consider B10, for which the Kd is 3.9 nM.
On the same count and under the same terms, for B11 the value was 5.1 nM; for B12, 2.1 nM.

Another experiment shares this target. Nature of the experiment: BLI, purified, average n=2.
Description: as §1, §2
With B1, the Kd came out at 6.41 nM.

Another experiment deals with T2, purified human monomeric 4-1BB (human, UniProt Q07011 24-186).
T2 construct: the assay used the 4-1BB part released by Factor Xa with the Fc removed; also called h4-1BB; human 4-1BB
T2 sequence (Q07011 other isoform, or with tags, fused parts or gaps limits assumed): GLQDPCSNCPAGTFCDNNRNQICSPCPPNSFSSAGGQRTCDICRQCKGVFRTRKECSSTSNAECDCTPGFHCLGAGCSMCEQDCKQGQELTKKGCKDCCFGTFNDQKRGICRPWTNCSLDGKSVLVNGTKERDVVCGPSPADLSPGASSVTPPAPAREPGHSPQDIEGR
The experiment can be described thus: SPR, Ab captured, monomeric 4-1BB injected. In general terms: Surface plasmon resonance follows binding to a sensor surface in real time, without labels.
Description: The anti-human Fc surface was prepared on a CMS Series S sensorchip by standard amine coupling methods as described by the manufacturer (GE Healthcare). Briefly, immediately after EDC/NHS activation, a 25 μg/mL solution of anti-human Fc in 10 mM NaOAc pH 4.5 was injected at a flow rate of 10 μL/min for 420 s until approximately 2000 resonance units (RUs) were immobilized on all four flow cells. The remaining active groups were quenched by a 420 s injection of 1M ethanolamine at 10 μL/min.
Antibodies for analysis were captured onto the anti-Fc surface by injecting 5 μg/mL solutions at a flow rate of 10 μL/min for 60 s. Using single-cycle kinetics, five concentrations of a two-fold dilution series of 4-1BB starting at 40 nM (for both supernatant and purified antibody runs) with a blank buffer control were sequentially injected at 40 μL/min for 180 s with a 600 s dissociation phase, resulting in a set of sensorgrams with a buffer blank reference. Experiments were performed at a constant temperature of 25° C. The anti-human Fc surfaces were regenerated to prepare for the next injection cycle by one pulse of 10 mM Glycine/HCl pH 1.5 for 120 s at 40 μL/min. Blank-subtracted sensorgrams were analyzed using Biacore™ T200 Evaluation Software v3.0. The blank-subtracted sensorgrams were then fit to the 1:1 Langmuir binding model.
Variants purified by SEC were assessed for binding to human 4-1BB.
B13 displayed a Kd of 155 nM.
